# Numbering of substitutions follows the chain as printed.
# B1: 23A11-H3L3 (antibody, V domains shown)
# VH: LVQLVQSGAEVKKPGASVKLSCKASGYIFTTYWIHWVKQRPGQGLEWIGMIQPNSGGTKYNDQFKNRATLTVDKSISTAYMELSRLTSDDTAVYYCARGAGTVDYFDYWGQGTTLSISS
# VL: DIVLTQSPASLAVSVGQRATITCRASESVDIYGNSFMHWYQQKPGQSPKLLIYRASNLESGIPARFSGSGSRTDFTLTINPVEANDTATYYCHQSNDDPYTFGGGTKLETK
# notes: Humanized; also called humanized 23A11 H3L3
# B2: 23A11-H5L5 (antibody, V domains shown)
# VH: B1 VH with L20V, K38R, R40A, A68V, K74T, T87R
# VL: B1 VL with S47A, H93Q
# notes: produced in 293 cells; also called humanized 23A11 H5L5
# B3: 22C9-C (antibody, V domains shown)
# VH: QVQLQQSGAELVKPGASVKLSCKASGYTFTSYWMHWVWQRPGQGLEWIGMIHPNSDITNCNENFKHTVTLTVDKSSSTAYMQLSSLTSEDSAVFYCARSDGSSYWYFDVWGTGTTVTVSS
# VL: SIVMTQTPKFLSVSAGDRVTITCKAGQSVNNDVAWYQQKPGQSPKLLIYYASNRYTGVPDRFTGSGYGTDFTFTISTVQAEDLAVYFCQQDFSSPLTFGAGTKLELK
# notes: Mouse variable regions fused to a human IgG1 constant region; also called 22C9-chimeric; chimeric antibody 22C9
# Experiments:
# [1] = biological target: T1, Recombinant Human PD-L1/CD274 Protein (hPD-L1-his) (human, UniProt Q9NZQ7 19-238); assay: ELISA on coated hPD-L1-his
# T1 construct: range 19-238; ACRO Biosystem PD1-H5229, made in HEK293; also called human PD-L1-his; hPD-L-his
# T1 sequence (Q9NZQ7 other isoform, or with tags, fused parts or gaps limits assumed): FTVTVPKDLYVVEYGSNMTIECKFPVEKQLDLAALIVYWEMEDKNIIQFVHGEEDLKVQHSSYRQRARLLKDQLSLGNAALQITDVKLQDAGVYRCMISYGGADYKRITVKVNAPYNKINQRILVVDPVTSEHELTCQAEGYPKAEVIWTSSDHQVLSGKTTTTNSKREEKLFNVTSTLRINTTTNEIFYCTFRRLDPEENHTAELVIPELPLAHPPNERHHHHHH
# [2] = biological target: hPD-L1 (antigen of the Biacore assay) (human, UniProt Q9NZQ7 19-238, limits assumed); assay: SPR (Biacore), antibody captured on anti-human Fc, antigen in flow
# Chain of hPD-L1 (antigen of the Biacore assay) (Q9NZQ7 19-238 limits assumed): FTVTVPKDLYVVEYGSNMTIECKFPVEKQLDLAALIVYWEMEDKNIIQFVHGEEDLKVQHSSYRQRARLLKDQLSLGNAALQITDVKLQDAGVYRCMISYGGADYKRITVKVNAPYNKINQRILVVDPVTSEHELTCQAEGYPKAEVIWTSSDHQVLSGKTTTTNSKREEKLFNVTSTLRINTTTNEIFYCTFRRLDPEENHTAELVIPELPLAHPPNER
# Experimental: A CM5 sensor chip was activated in each flow cell by 7-min injection (10 μl/min) of freshly prepared 1:1 50 mM N-hydroxysuccinimide (NHS): 200 mM 1-ethyl-3-(3-dimethylaminopropyl)-carbodiimide (EDC). Then anti-human Fc antibody (GE Healthcare) in a concentration of 10 μg/ml in 10 mM sodium acetate buffer PH 5.0 was injected onto the activated chip at 10 μl/min (HBS-EP running buffer: 10 mM HEPES, 150 mM NaCl, 3.4 mM EDTA, 0.005% surfactant P20, pH 7.4). The remaining active coupling sites were blocked by 7 min injection of 1M ethanolamine at 10 μl/min. The immobilization level of each flow cell is ˜9000RU. Antibodies were captured in FC2 by anti-human Fe IgG (GE Healthcare) to 200˜300RU. FC1 was used as the reference cell. Antigen was injected at varying concentrations after capture of antibody. The association time for antibody binding antigen is 180s. Surface Regeneration condition is 120s at 10 μl/min in Gly pH1.5. The signals with captured antibody subtracted from those without captured antibody were calculated with Biacore X100 evaluation software ver. 2.0 (Biacore).
# [3] = biological target: T2, Human PD-L1/CD274 with C-Fc Tag (hPD-L1-Fc) (human, UniProt Q9NZQ7 19-238); assay: blocking ELISA on coated hPD-L1-Fc; blocked ligand: biotinylated hPD-1-N297A
# T2 construct: range 19-238; ACRO Biosystem PD1-H5258, made in HEK293; also called human PD-L1-Fc; not shown: Fc fragment of human IgG1 at C-terminus
# T2 sequence (Q9NZQ7 19-238 limits assumed): as above
# Experimental: High-binding clear polystyrene 96 well plates (Nunc) were coated with 100 μl/well of coating solution consisting of 1 μg/ml hPD-L1-Fc overnight at 4° C. Then the plates were washed once on an automatic plate washer using washing buffer (PBS+0.1% Tween 20 (Sigma)). 200 μl of blocking buffer (PBS+1% BSA+1% normal goat serum+0.05% Tween-20) was added to each well and incubated 2 hours at room temp. […] The plates were then washed 3 times using the method described above. […] After the plates were washed 3 times, 100 μl/well of a solution of 1:5000 diluted HRP conjugated Neutravidin antibody (Pierce) in dilution buffer was then added to each well of the plate. After that the ELISA plates were allowed to incubate for 60 min at RT, then the plates were washed 3 times with 250 μl/well washing buffer. Finally, 100 μl/well of TMB was added to each well and the reaction was terminated using 0.64M H₂SO₄. The plates were read on a Thermo Multiscan FC at 450 nM (see FIG. 18A to 18D).
# [4] = biological target: T1, Recombinant Human PD-L1/CD274 Protein …; assay: ELISA, coated hPD-L1-his, acidic wash and incubation after binding at pH7.4
# Experimental: (§1) The pH-dependent binding affinity was further measured at various pH values, such as pH4, pH4.5, pH5.0, pH5.5, pH6.0, pH7.4. The measurement by ELISA was conducted similarly to the method described above. High-binding clear polystyrene 96 well plates were coated with 100 μl/well of a 0.5 μg/ml hPD-L1-his in high pH coating buffer and incubated overnight at 4° C. Then the coated plates were washed 3 times with shaking for 10s on an automatic plate washer with PBS+0.1% Tween 20 (Amresco). Then 200 μl of blocking buffer (1% BSA (Solarbio)+1% normal goat serum (Solarbio)+0.05% Tween 20 (Amresco)) was added to each well and the plates were then incubated for 2 hours at room temperature and washed 3 times as above. […] The plates were then washed once with 250 μl/well washing buffer at pH7.4, pH6.0, pH5.5, pH5.0, pH4.5 or pH4.0 and then 100 μl/well pH7.4 or pH5.5 washing buffer was added and the incubation was continued for 2 hours at RT with shaking. Afterwards, the plates was washed 3 times washing buffer at pH7.4 and 100 μl/well of a solution of HRP conjugated goat anti-hIgG HRP antibody (1:20000, Abcam) in pH7.4 dilution buffer was then added to each well of the plate. After that the plates were allowed to incubate for 60 min at room temperature followed by washing 3 times with 250 μl/well pH7.4 washing buffer. Finally, 100 μl/well of TMB was added to each well for 15 min and the reaction was terminated using 50 μl/well of 0.16M/L sulfuric acid. The plates were read on a Thermo Multiscan FC at 450 nm (see FIG. 23A-23F). The measurements were performed in triplicate.
# [5] = biological target: T1, Recombinant Human PD-L1/CD274 Protein …; assay: ELISA on coated hPD-L1-his; bound at pH7.4, then 2 h at pH7.4
# Experimental: as §1
EC50 (read off the curve) [1] [ng/mL],Kd [2] [nM],koff [2] [s⁻¹],kon [2] [M⁻¹ s⁻¹],IC50 (read off the curve) [3] [µg/mL],binding signal at pH5 as percent of the signal at pH7.4 [4] [%],binding signal at pH5.5 as percent of the signal at pH7.4 [4] [%],EC50 (read off the curve) [5] [µg/mL],Binder
~2,74.1,0.0542,732000,~0.07,,,,B1
~2,,,,~0.1,,,,B2
,,,,,< 50,< 75,~0.06,B3
